Consider three molecules from patent US20230226096A1 (Orna Therapeutics, Inc., priority 2020, published 2023).

B1: Bovine picornavirus (nucleic acid)
DNA: TTTTCTCCCCTCCCCCTCCAACTACCTTTTCCCCCTCTTGTAACGCTAGAAGTTTGTGCAAACCGCCTGTAGGGTACTGCAATCCAGCAGTGCATAGGCTAAGCTTTTCTTGTTACCCCACCCCACATTATACTGAGGAGGATTGTGAAATTGTGTTAGTATGGGTTAGTAGCGGTGACCCGGGTAACCCCAACCCAGAAACTCACGGATGAGATGAACAGGACCCCACATGGTAACGTGTGTGTTCGTCTGCCCCGCAAGGTGAGGCCGTGAGAGCTTTGCACGCGAAAACCTTGAAAACCCAAAAGTACCTTGAGCTCTTCGCTATTTTGTGTTTCCTCCAGGACCCTGAATGCGGCTAAACCTAACCCGCGATCCGCACGTAGCAACCCAGCTAGAGTGTGGTCGTAATGCGCAAGTTGCGGGCGGTACCGACTACTTTGGTGTTCCTGTGTTTCCTTTATTTTATTTTGAATTTTTATGGTGACAACAGCTAGAAAATAAGAGTGAAC
B2: Aichivirus DV (nucleic acid, listed as Aichivirus sp.)
DNA: TACTCCATTCAGCTTCTTCGGAACCTGTTCGGAGGAATTAAACGGGCACCCATACACCCCCACCCCCTTTTCTGCAACTTAAGTATGTGTGCTCGTAATCTTGACTCCCACGGAACGGATCGATCCGCTGGAGAACAAACTGCTAGATCCACATCCTCCCTTCCCCTGGGAGGACCCCGGTCCTCCCACATCCTCCCCCCAGCCTGACGTAACACAGGCTGTGTGAAGTCCCCGCGAAAGCTGCTCACGTGGCAATTGTGGGTCCCCCCTTCACCAAGACACCAGGTCTTTCCTCCTTAAGGCTAGCCCCGATGTGTGAATTCACATTGGGCAACTAGTGGTGTCACTGTGCGCTCCCAATCTCGGCCGCGGAGTGCTGTTCCCCAAGCCAAACCCCTGGCCCTTCACTATGTGCCTGGCAAGCATATCTGAGAAGGTGTTCCGCTGTGGCTGCCAGCCTGGTAACAGGTGCCCCAGTGTGCGTAACCTTCTTCCGTCTCCGGACGGTAGTGATTGGTTAAGATTTGGTGTAAGGTTCATGTGCCAACGCCCTGTGCGGGATGAAACCTCTACTGCCCTAGGAATGCCAGGCAGGTACCCCACCTTCGGGTGGGATCTGAGCCTGGGCTAATTGTCTACGGGTAGTTTCATTTCCAATTCTTTTATGTCGGAGTC
B3: Human enterovirus 109 (nucleic acid, listed as Enterovirus sp.)
DNA: TTTAAAACAGCCTGGGGGTTGTTCCCACCCCCAGGGCCCACTGGGCGTTAGTACTCTGGTATCGCGGTACCTTAGTATGCCTGTTTTATGTCTCCTTTCCCCCGCAACTTTAGAAGTAATCAAGTTATGGCTCAACAGTCGCCACACCCCCAGTGTGGTTCCGAGCAAGCACTTCTGTTCCCCGGTTGCGTCTTATATGCTGTGTGAACGGCAGAAAGGGACAATATCGTTATCCGCTCAACTACTACGGGAAGCCTAGTACCACCATGGATTGACCTGAAAGTTGCGTTCAGCGCACCCCCAGCGCAGCTCAGGCCGATGAGGCTCCGAATACCCCACGGGCGACCGTGTCGGAGCCTGCGTTGGCGGCCTGCCCACGTTGCAAAACGTGGGACGCTCATTTCATGACATGGTGCGAAGAGCCTACTGTGCTAGTTGAGAGTCCTCCGGCCCCTGAATGTGGATAATCCTAACCACTGAACCTACGGGCGCAAACCAGCGTCTGGTAGGCCGTAACGCGCAAGTCGGTGGCGGAACCAACTACTTTGGGTGTCCGTGTTTCCTTTTATCTTTTTGAATGTTTATGGTGACAATTGTTGTGTACAGTTGTTACCATAGTTTGCATTCAGAAATAAACCTAACACTTTCCAATTATTTGTTACA

This data set has as its system HEK293 cells. The data set is classed as cell-based, human. The following applies: luminescence from secreted Gluc in supernatant 24 hours after transfection of HEK293 cells; circular RNA encoding Gluc with the named IRES (UTR truncated to 675 nt).
The molecule B1 displayed an Expression of 3.82E+06.
B2 registered an Expression of 7.79E+07.
Next, B3: 4.92E+05.
